Reference: article PMC12310515 (2025)
Where two headings read alike, the source gives them in different places.

B2: KIR2DS1 (SPR protein) (receptor)
chain: HEGVHRKPSLLAHPGRLVKSEETVILQCWSDVMFEHFLLHREGMFNDTLRLIGEHHDGVSKANFSISRMKQDLAGTYRCYGSVTHSPYQLSAPSDPLDIVIIGLYEKPSLSAQPGPTVLAGENVTLSCSSRSSYDMYHLSREGEAHERRLPAGTKVNGTFQANFPLGPATHGGTYRCFGSFRDSPYEWSKSSDPLLVSVTGNPSNSWPSPTEPSSETGNPRHLH
B4: KIR2DL1 (residues 27-221) (domain or fragment)
chain: RKPSLLAHPGRLVKSEETVILQCWSDVMFEHFLLHREGMFNDTLRLIGEHHDGVSKANFSISRMTQDLAGTYRCYGSVTHSPYQVSAPSDPLDIVIIGLYEKPSLSAQLGPTVLAGENVTLSCSSRSSYDMYHLSREGEAHERRLPAGPKVNGTFQADFPLGPATHGGTYRCFGSFHDSPYEWSKSSDPLLVSVT
modifications: N-linked glycan on N67 (N-acetylglucosamine-fucose core seen in the structures)

Assays:
Test in all cases: SPR
KIR2DS1 (SPR protein) = target: B2
[1] = target: B4
SEN-08 [2] = target: T1, SEN-08 (P. falciparum pfSN01)
SEN-12 [3] = target: T2, SEN-12 (P. falciparum pfSN01)
SEN-01 [4] = target: T3, SEN-01 (P. falciparum pfSN01)
KEN-04 [5] = target: T4, KEN-04 (P. falciparum pfKE01)
KEN-02 [6] = target: T5, KEN-02 (P. falciparum pfKE01)
KEN-06 [7] = target: T6, KEN-06 (P. falciparum pfKE01)
SEN-08 [8] = target: T1, SEN-08; remark: listed apart in the source
[9] = target: one of the six Kenyan RIFINs (pfKE01) that bound to LILRB1
SEN-12 [10] = target: T2, SEN-12; remark: listed apart in the source
SEN-01 [11] = target: T3, SEN-01; remark: listed apart in the source
KEN-04 [12] = target: T4, KEN-04; remark: listed apart in the source
KEN-02 [13] = target: T5, KEN-02; remark: listed apart in the source
KEN-06 [14] = target: T6, KEN-06; remark: listed apart in the source

B1: KEN-01 (mFc-tagged, SPR) (natural protein)
chain: AKGAAAAEAARIPAAIDAVIKGIVTKFGVSTESVQGLKSLFTANTYNDVTKIARAINEQYNPSSCLTGGSGADNSICPWAMENFFAARKIPGFIQREAVSMNDVIEKTVKTIVSDAPKTAETAAKKATEG
For B1, which Kd (KIR2DS1 (SPR protein)) is on record?
Its Kd is 0.3 µM.

And the Kd [1]?
Its Kd is 0.1 µM.

How did the Kd (SEN-08 [2]) turn out when B2 was run?
Its Kd is 2.1 µM.

And the Kd (SEN-12 [3])?
Its Kd is 0.5 µM.

And the Kd (SEN-01 [4])?
Its Kd is 1.1 µM.

And the Kd (KEN-04 [5])?
The Kd was 5.4 µM.

And the Kd (KEN-02 [6])?
Its Kd is 2.6 µM.

And the Kd (KEN-06 [7])?
Its Kd is 0.9 µM.

B3: LILRB1 (receptor)
chain: GHLPKPTLWAEPGSVITQGSPVTLRCQGGQETQEYRLYREKKTALWITRIPQELVKKGQFPIPSITWEHAGRYRCYYGSDTAGRSESSDPLELVVTGAYIKPTLSAQPSPVVNSGGNVILQCDSQVAFDGFSLCKEGEDEHPQCLNSQPHARGSSRAIFSVGPVSPSRRWWYRCYAYDSNSPYEWSLPSDLLELLVLGVSKKPSLSVQPGPIVAPEETLTLQCGSDAGYNRFVLYKDGERDFLQLAGAQPQAGLSQANFTLGPVSRSYGGQYRCYGAHNLSSEWSAPSDPLDILIAGQFYDRVSLSVQPGPTVASGENVTLLCQSQGWMQTFLLTKEGAADDPWRLRSTYQSQKYQAEFPMGPVTSAHAGTYRCYGSQSSKPYLLTHPSDPLELVVSGPSGGPSSPTTGPTSTSGPEDQPLTPTGSDPQSGLGRHLGVVIGILVAVILLLLLLLLLFLILRHRRQGKHWTSTQRKADFQHPAGAVGPEPTDRGLQWRSSPAADAQEENLYAAVKHTQPEDGVEMDTRSPHDEDPQAVTYAEVKHSRPRREMASPPSPLSGEFLDTKDRQAEEDRQMDTEAAASEAPQDVTYAQLHSLTLRREATEPPPSQEGPSPAVPSIYATLAIH
For B3, which Kd (SEN-08 [8]) is on record?
Its Kd is 5.5 µM.

And the Kd [9]?
The Kd was 2.6 µM.

What does the source list for B4?
Kd (SEN-08 [8]): 3.5 µM; Kd (SEN-12 [10]): 0.4 µM; Kd (SEN-01 [11]): 3.4 µM; Kd (KEN-04 [12]): 2 µM; Kd (KEN-02 [13]): 2.2 µM; Kd (KEN-06 [14]): 0.4 µM
